Substrate in data set [1]: O=C[C@H](O)COP(=O)(O)O
Kind of data set: GapN vs. GapA kinetic comparison: catalytic constants of GapA (Table 18). The format is biochemical, E. coli. The settings on record: other: fixed NAD; G3P varied.

Substrate in data set [2]: NC(=O)c1ccc[n+]([C@@H]2O[C@H](COP(=O)(O)OP(=O)(O)OC[C@H]3O[C@@H](n4cnc5c(N)ncnc54)[C@H](OP(=O)(O)O)[C@@H]3O)[C@@H](O)[C@H]2O)c1
As to the kind of experiment: purified protein, by the assay type. The settings on record: other: fixed G3P; NADP varied.

The values that follow come from patent US12234463B2, “Engineered microorganisms with G3P → 3PG enzyme and/or fructose-1,6-bisphosphatase including those having synthetic or enhanced methylotrophy” (Genomatica, Inc., priority 2018, dated 2025).

B1: E. coli GapA (NAD-dependent glyceraldehyde-3-phosphate dehydrogenase A; P0A9B2) (Escherichia coli K-12) (protein)
chain: MTIKVGINGFGRIGRIVFRAAQKRSDIEIVAINDLLDADYMAYMLKYDSTHGRFDGTVEVKDGHLIVNGKKIRVTAERDPANLKWDEVGVDVVAEATGLFLTDETARKHITAGAKKVVMTGPSKDNTPMFVKGANFDKYAGQDIVSNASCTTNCLAPLAKVINDNFGIIEGLMTTVHATTATQKTVDGPSHKDWRGGRGASQNIIPSSTGAAKAVGKVLPELNGKLTGMAFRVPTPNVSVVDLTVRLEKAATYEQIKAAVKAAAEGEMKGVLGYTEDDVVSTDFNGEVCTSVFDAKAGIALNDNFVKLVSWYDNETGYSNKVLDLIAHISK
notes: NAD-dependent; kinetic assay with G3P
On to B1, for which, in data set [1], the Km (in general, the concentration of substrate that gives half-maximal velocity) came out at 2000 ± 300 µM; the kcat (usually the maximal rate divided by the concentration of active sites) came out at 19 ± 1 s⁻¹; the kcat/Km (usually the second-order rate constant that governs catalysis at low substrate concentration) is 9500 M⁻¹ s⁻¹.

B2: Bacillus methanolicus MGA3 GapN (NADP-dependent glyceraldehyde-3-phosphate dehydrogenase), cds 10663A (Bacillus methanolicus MGA3) (protein)
chain: MQVLEKDFKFLLNGEWSFSSSNQFINIYSPSTGEVVGRVPAMTKDEIDKAVAGARQAQKKWEKLAVSERAKILHAWADELVKMIDVIAPMIMNEVGKNISTARKEVTRTAEIIRYTAEEGVRIHGEFINGGSLDADSSIKTAIVEKKPLGVILAISPFNYPINLAATKIAPALIAGNAVVFKPATQGAISGLLMIQALENAGLPKGLVNTVTGKGSEIGDYIITHPFIDMISFTGGTGTGQNIARKASMIPLVLELGGKDPAIVLEDADLELAATEIVSGAFSYSGQRCTAIKRVLVLKDVAAPLIEKIKEKVEKLTVGRPEDDADITPLIDESSADFVQGLIDDALAKGASLITGNKREKNLIYPTVLSNVTKDMKVAWEEPFGPVLPCIIVDSVEEAIEIANESEFGLQASVFTSNIEKAFTIASSLDVGSVQINGRTERGPDHFPFSAVKNSGLGSQGIRQSIISMMRDKVTVINLKK
For the protein B2, in data set [2], the Km stood at 270 ± 40 µM, the kcat worked out at 8.2 s⁻¹ and the specificity constant (kcat/Km) is 30000 M⁻¹ s⁻¹.

B3: Bacillus methanolicus PB1 GapN (NADP-dependent glyceraldehyde-3-phosphate dehydrogenase), cds 10662A (Bacillus methanolicus PB1) (protein)
chain: MQVLEKDHKFLLNGKWCYSSSNEFINIYSPSTGEIVGRVPAMTKDEIDKAVAGACQAQKNWEKLAVSDRAKILHAWADELVKMIDVIAPMIMNEVGKNISTAKREVIRTADIIRYTAEEGVRIHGEFINGGSLDADSSKKTAIVEKKPLGVILAISPFNYPINLAATKIAPALIAGNAVVFKPATQGAISGLLMIQALENAGLPEGLVNTVTGKGSEIGDYIITHPFIDMISFTGGTGTGQNIARKASMIPLVLELGGKDPAIVLEDADLELAAAEIVSGAFSYSGQRCTAIKRVIVLKDAAAPLIEKIKEKVEKLTVGKPEDDADITPLIDESSADFVQGLIDDALAKGATLITGNKREKNLIYPTVLSNVTKDMKVAWEEPFGPVLPCIIVDSAEEAIEIANESEFGLQASVFTTNIEKAFSIASSLDVGSVQINGRTERGPDHFPFSAVKNSGLGSQGIRQSIISMMRDKVTVINLKR
On to B3, for which, in data set [2], the Michaelis-Menten constant (Km) came to 320 ± 70 µM, the turnover number (kcat) is 9.7 s⁻¹ and the kcat/Km was 31000 M⁻¹ s⁻¹.
